Test results from US7514215B2, “Sulfotransferase SULT2A1 sequence variants” (Mayo Foundation for Medical Education and Research, priority 2001, dated 2009).
Like-named read-outs stand apart in the source and are kept apart here.

Test system: SULT2A1
Assay: SULT2A1 enzyme activity assay: sulfate conjugation of DHEA with 35S-PAPS, COS-1 cytosol preparations of recombinant allozymes
Format: biochemical, human
Settings: for Enzyme Activity (%): percentage of WT SULT2A1 enzyme activity, 5 μM DHEA, 0.4 μM 35S-PAPS, COS-1 cytosol, corrected for transfection efficiency; for Enzyme activity: immunoreactive protein: ratio of enzymatic activity to immunoreactive protein; for decrease in enzyme activity: reduction relative to wild type
Method: Activity of SULT2A1 polypeptides can be altered relative to the reference SULT2A1 polypeptide. […] Other allozymes can have increased activity relative to the reference SULT2A1 polypeptide. Activity of SULT2A1 polypeptides can be assessed in vitro using a sulfate acceptor substrate such as DHEA and a donor sulfate molecule such as PAPS. In general, recombinant SULT2A1 polypeptides can be incubated at 37° C. with 0.4 μM ^35S-PAPS and 5 μM DHEA in a potassium phosphate buffer (5 mM, pH 6.5). Reactions can be stopped by precipitating PAPS and SULT2A1 polypeptide (e.g., with barium hydroxide, barium acetate, and zinc sulfate). After centrifugation of the reaction, radioactivity in the supernatant is assessed. SULT2A1 activity is expressed as nmoles of sulfate conjugated product formed per hour of incubation. See, Campbell, N. R. C. et al., Biochem. Pharmacol., 36:1435-1446 (1987).
COS-1 cell expression: Five different SULT2A1 expression constructs were made using the pCR3.1 expression vector. Four of the constructs were designed to express SULT2A1 allozymes, while the remaining construct was designed to express a wild type SULT2A1 polypeptide. All SULT2A1 cDNA sequences containing SULT2A1 nucleotide sequence variants used to create the expression constructs were created by site directed mutagenesis using the method described by Ho et al., Gene 77(1):51-9 (1989). Each SULT2A1 cDNA was amplified by PCR and subcloned into the eukaryotic expression vector pCR3.1 (Promega, Madison, Wis.). After subcloning, all inserts were sequenced to assure that no spurious nucleotide point mutations had been introduced during the PCR amplifications. […] As a control, a transfection was also performed with “empty” pCR3.1, i.e., vector lacking an insert, to make it possible to correct for endogenous COS-1 cell SULT activity. The control plasmid pSV-β-galactosidase (Promega) was cotransfected with each SULT2A1 construct to make it possible to correct for transfection efficiency. Two independent transfections, each consisting of three separate plates, were performed with each of the expression constructs.
After 48 hours in culture, the transfected cells were harvested and high speed supernatant (HSS) cytosol preparations were prepared as described by Wood, T. C. et al., Biochem. Biophys. Res. Commun., 198:1119-1127 (1994). Aliquots of these cytosol preparations were stored at −80° C. prior to assay.
Enzyme Assays: β-galactosidase activity in each of the COS-1 HSS preparations was measured with the β-galactosidase Enzyme Assay System (Promega, Madison, Wis.). These HSS preparations of recombinant SULT2A1 allozymes were used for the activity studies without any further purification. The protein concentration of each recombinant protein preparation was determined by the dye-binding method of Bradford with bovine serum albumin (BSA) as a standard.
SULT2A1 enzyme activity was measured with an assay that involves sulfate conjugation of a sulfate acceptor substrate, DHEA, in the presence of the sulfate donor 3′-phosphoadenosine-5′-phosphosulfate (PAPS). See, Campbell, N. R. C. et al., Biochem. Pharmacol., 36:1435-1446 (1987). Briefly, 0.4 μM ^35S-PAPS and a HSS preparation were reacted with 5 μM DHEA in 5 mM potassium phosphate buffer at pH 6.5. […] Cytosol from COS-1 cells that had been transfected with empty pCR3.1 was used to correct for endogenous SULT activity. Because SULTs display profound substrate inhibition, DHEA concentrations that ranged from 100 pM to 1 mM were tested with each recombinant allozyme to ensure that the assays were performed at DHEA concentrations that yielded maximal activity for that allozyme. Enzyme activity was expressed as nanomoles (nmoles) of sulfate conjugated product formed per hour of incubation. Apparent Km values for PAPS were determined in the presence of 5 μM DHEA with six PAPS concentrations that varied from 0.0625 μM to 2 μM. […]

[1] = apparent Km for DHEA, read-out: DHEA Km
[2] = apparent Km for PAPS in the presence of 5 μM DHEA, read-out: PAPS Km

Molecule | activity relative to the reference SULT2A1 polypeptide (in words) | Km [1] [µM] | Km [2] [µM] | Enzyme Activity (%) | Enzyme activity: immunoreactive protein | decrease in enzyme activity [%]
Ala63Pro: SULT2A1 allozyme having a proline at amino acid residue 63 in place of alanine (protein, UniProt Q06520 1-285, looked up, variant A63P) Sulfotransferase 2A1: MSDDFLWFEGIAFPTMGFRSETLRKVRDEFVIRDEDVIILTYPKSGTNWLAEILCLMHSKGDPKWIQSVPIWERSPWVESEIGYTALSETESPRLFSSHLPIQLFPKSFFSSKAKVIYLMRNPRDVLVSGYFFWKNMKFIKKPKSWEEYFEWFCQGTVLYGSWFDHIHGWMPMREEKNFLLLSYEELKQDTGRTIEKICQFLGKTLEPEELNLILKNSSFQSMKENKMSNYSLLSVDYVVDKAQLLRKGVSGDWKNHFTVAQAEDFDKLFQEKMADLPRELFPWE | reduced activity | 0.21 ± 0.01 | 0.0082 ± 0.00132 | 57 | 2.1 | 43
Lys227Glu: SULT2A1 allozyme having a glutamate at amino acid residue 227 in place of a lysine (protein, UniProt Q06520 1-285, looked up, variant K227E) Sulfotransferase 2A1: MSDDFLWFEGIAFPTMGFRSETLRKVRDEFVIRDEDVIILTYPKSGTNWLAEILCLMHSKGDAKWIQSVPIWERSPWVESEIGYTALSETESPRLFSSHLPIQLFPKSFFSSKAKVIYLMRNPRDVLVSGYFFWKNMKFIKKPKSWEEYFEWFCQGTVLYGSWFDHIHGWMPMREEKNFLLLSYEELKQDTGRTIEKICQFLGKTLEPEELNLILKNSSFQSMKENEMSNYSLLSVDYVVDKAQLLRKGVSGDWKNHFTVAQAEDFDKLFQEKMADLPRELFPWE | reduced activity | 0.905 ± 0.053 | 0.0102 ± 0.00096 | 15 | 7.5 | 
Ala261Thr: SULT2A1 allozyme having a threonine at amino acid 261 in place of an alanine (protein) MSDDFLWFEGIAFPTMGFRSETLRKVRDEFVIRDEDVIILTYPKSGTNWLAEILCLMHSKGDAKWIQSVPIWERSPWVESEIGYTALSESESPRLFSSHLPIQLFPKSFFSSKAKVIYLMRNPRDVLVSGYFFWKNMKFIKKPKSWEEYFEWFCQGTVLYGSWFDHIHGWMPMREEKNFLLLSYEELKQDTGRTIEKICQFLGKTLEPEELNLILKNSSFQSMKENKMSNYSLLSVDYVVDKAQLLRKGVSGDWKNHFTVTQAEDFDKLFQEKMADLPRELFPWE | comparable to the reference SULT2A1 polypeptide | 0.245 ± 0.012 | 0.0227 ± 0.00062 |  | 1.2 | 85
WT: recombinant wild type (reference) human SULT2A1 polypeptide, SEQ ID NO:3, expressed in COS-1 cells (protein, listed as Homo Sapiens) MSDDFLWFEGIAFPTMGFRSETLRKVRDEFVIRDEDVIILTYPKSGTNWLAEILCLMHSKGDAKWIQSVPIWERSPWVESEIGYTALSESESPRLFSSHLPIQLFPKSFFSSKAKVIYLMRNPRDVLVSGYFFWKNMKFIKKPKSWEEYFEWFCQGTVLYGSWFDHIHGWMPMREEKNFLLLSYEELKQDTGRTIEKICQFLGKTLEPEELNLILKNSSFQSMKENKMSNYSLLSVDYVVDKAQLLRKGVSGDWKNHFTVAQAEDFDKLFQEKMADLPRELFPWE |  | 0.247 ± 0.071 | 0.0218 ± 0.00086 | 100 | 1.0 | 
63Pro/261Thr: SULT2A1 polypeptide with a proline at position 63 and a threonine at position 261 (double variant) (protein, UniProt Q06520 1-285, looked up, variant A63P A261T) Sulfotransferase 2A1: MSDDFLWFEGIAFPTMGFRSETLRKVRDEFVIRDEDVIILTYPKSGTNWLAEILCLMHSKGDPKWIQSVPIWERSPWVESEIGYTALSETESPRLFSSHLPIQLFPKSFFSSKAKVIYLMRNPRDVLVSGYFFWKNMKFIKKPKSWEEYFEWFCQGTVLYGSWFDHIHGWMPMREEKNFLLLSYEELKQDTGRTIEKICQFLGKTLEPEELNLILKNSSFQSMKENKMSNYSLLSVDYVVDKAQLLRKGVSGDWKNHFTVTQAEDFDKLFQEKMADLPRELFPWE | reduced activity | 0.29 ± 0.012 | 0.0114 ± 0.0003 | 42 | 1.6 | 
